Reference: patent US20220025381A1
Blank lines part the entries; values can stand above or below the binder they belong to.

Columns and labels:
Experiment in all cases: cell-based or functional assay
[1] = target: T1, CD376 PV1-RfxCas13d-566C-NLS-BGHpA
T1 sequence: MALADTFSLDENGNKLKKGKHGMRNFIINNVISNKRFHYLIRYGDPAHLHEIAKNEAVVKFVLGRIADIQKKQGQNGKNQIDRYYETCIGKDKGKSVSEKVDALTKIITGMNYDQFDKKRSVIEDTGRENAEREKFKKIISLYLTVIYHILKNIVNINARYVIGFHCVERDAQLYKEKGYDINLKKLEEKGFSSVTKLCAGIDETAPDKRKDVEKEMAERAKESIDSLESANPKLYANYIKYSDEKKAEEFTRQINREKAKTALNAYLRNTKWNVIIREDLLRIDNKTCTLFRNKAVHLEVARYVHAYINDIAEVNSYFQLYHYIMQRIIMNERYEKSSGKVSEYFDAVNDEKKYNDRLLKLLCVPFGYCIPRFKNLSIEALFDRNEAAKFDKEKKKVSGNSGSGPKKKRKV

[2] = target: T2, CD380 PV1-RfxCas13d-656C-NLS-BGHpA
T2 sequence: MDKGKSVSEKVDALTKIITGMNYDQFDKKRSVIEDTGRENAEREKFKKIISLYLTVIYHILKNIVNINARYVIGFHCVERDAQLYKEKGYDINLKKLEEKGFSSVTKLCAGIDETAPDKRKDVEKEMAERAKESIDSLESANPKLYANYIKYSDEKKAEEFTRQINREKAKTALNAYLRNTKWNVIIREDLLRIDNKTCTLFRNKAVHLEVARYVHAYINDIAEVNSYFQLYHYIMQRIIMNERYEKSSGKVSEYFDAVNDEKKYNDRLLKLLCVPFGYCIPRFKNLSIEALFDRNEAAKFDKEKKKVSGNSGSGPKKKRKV

[3] = target: T3, CD400 PV1-GAI-L1-RfxCas13d-264C-NLS-BGHpA
T3 sequence: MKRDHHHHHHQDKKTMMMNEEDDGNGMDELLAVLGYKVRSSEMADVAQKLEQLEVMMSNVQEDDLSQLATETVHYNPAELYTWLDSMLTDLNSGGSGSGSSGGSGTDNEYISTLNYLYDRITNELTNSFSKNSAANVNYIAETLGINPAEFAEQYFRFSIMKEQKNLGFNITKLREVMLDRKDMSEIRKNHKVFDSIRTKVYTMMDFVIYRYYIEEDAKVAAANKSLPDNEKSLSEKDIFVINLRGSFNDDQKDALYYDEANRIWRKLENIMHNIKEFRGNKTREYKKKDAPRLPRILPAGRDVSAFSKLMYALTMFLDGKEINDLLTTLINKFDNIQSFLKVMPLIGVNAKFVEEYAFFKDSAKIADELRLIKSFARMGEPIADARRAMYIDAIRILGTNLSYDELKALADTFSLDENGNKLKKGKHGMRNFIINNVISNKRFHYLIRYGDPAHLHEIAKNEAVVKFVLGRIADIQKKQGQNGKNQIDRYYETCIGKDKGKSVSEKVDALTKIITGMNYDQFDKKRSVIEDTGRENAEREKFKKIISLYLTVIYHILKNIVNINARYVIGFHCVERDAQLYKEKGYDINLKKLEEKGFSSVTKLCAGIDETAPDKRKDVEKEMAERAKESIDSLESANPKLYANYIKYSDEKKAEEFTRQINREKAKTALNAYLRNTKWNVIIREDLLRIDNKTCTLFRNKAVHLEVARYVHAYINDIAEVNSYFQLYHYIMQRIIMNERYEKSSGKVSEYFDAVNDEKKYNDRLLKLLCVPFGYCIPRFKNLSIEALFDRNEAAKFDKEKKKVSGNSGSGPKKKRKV

gRNA induced knockdown of mCherry without CID domains [1]: < 80%
B1: CD375 PV1-RfxCas13d-N565-NLS-BGHpA (protein)
chain: MIEKKKSFAKGMGVKSTLVSGSKVYMTTFAEGSDARLEKIVEGDSIRSVNEGEAFSAEMADKNAGYKIGNAKFSHPKGYAVVANNPLYTGPVQQDMLGLKETLEKRYFGESADGNDNICIQVIHNILDIEKILAEYITNAAYAVNNISGLDKDIIGFGKFSTVYTYDEFKDPEHHRAAFNNNDKLINAIKAQYDEFDNFLDNPRLGYFGQAFFSKEGRNYIINYGNECYDILALLSGLRHWVVHNNEEESRISRTWLYNLDKNLDNEYISTLNYLYDRITNELTNSFSKNSAANVNYIAETLGINPAEFAEQYFRFSIMKEQKNLGFNITKLREVMLDRKDMSEIRKNHKVFDSIRTKVYTMMDFVIYRYYIEEDAKVAAANKSLPDNEKSLSEKDIFVINLRGSFNDDQKDALYYDEANRIWRKLENIMHNIKEFRGNKTREYKKKDAPRLPRILPAGRDVSAFSKLMYALTMFLDGKEINDLLTTLINKFDNIQSFLKVMPLIGVNAKFVEEYAFFKDSAKIADELRLIKSFARMGEPIADARRAMYIDAIRILGTNLSYDELKPKKKRKV

gRNA induced knockdown of mCherry without CID domains [2]: < 80%
B2: CD379 PV1-RfxCas13d-N655-NLS-BGHpA (protein)
chain: MIEKKKSFAKGMGVKSTLVSGSKVYMTTFAEGSDARLEKIVEGDSIRSVNEGEAFSAEMADKNAGYKIGNAKFSHPKGYAVVANNPLYTGPVQQDMLGLKETLEKRYFGESADGNDNICIQVIHNILDIEKILAEYITNAAYAVNNISGLDKDIIGFGKFSTVYTYDEFKDPEHHRAAFNNNDKLINAIKAQYDEFDNFLDNPRLGYFGQAFFSKEGRNYIINYGNECYDILALLSGLRHWVVHNNEEESRISRTWLYNLDKNLDNEYISTLNYLYDRITNELTNSFSKNSAANVNYIAETLGINPAEFAEQYFRFSIMKEQKNLGFNITKLREVMLDRKDMSEIRKNHKVFDSIRTKVYTMMDFVIYRYYIEEDAKVAAANKSLPDNEKSLSEKDIFVINLRGSFNDDQKDALYYDEANRIWRKLENIMHNIKEFRGNKTREYKKKDAPRLPRILPAGRDVSAFSKLMYALTMFLDGKEINDLLTTLINKFDNIQSFLKVMPLIGVNAKFVEEYAFFKDSAKIADELRLIKSFARMGEPIADARRAMYIDAIRILGTNLSYDELKALADTFSLDENGNKLKKGKHGMRNFIINNVISNKRFHYLIRYGDPAHLHEIAKNEAVVKFVLGRIADIQKKQGQNGKNQIDRYYETCIGKPKKKRKV

knockdown efficiency of mCherry with gibberellin and gRNA [3]: > 60%
B3: CD399 PV1-RfxCas13d-N263-L1-GID-NLS-BGHpA (protein)
chain: MIEKKKSFAKGMGVKSTLVSGSKVYMTTFAEGSDARLEKIVEGDSIRSVNEGEAFSAEMADKNAGYKIGNAKFSHPKGYAVVANNPLYTGPVQQDMLGLKETLEKRYFGESADGNDNICIQVIHNILDIEKILAEYITNAAYAVNNISGLDKDIIGFGKFSTVYTYDEFKDPEHHRAAFNNNDKLINAIKAQYDEFDNFLDNPRLGYFGQAFFSKEGRNYIINYGNECYDILALLSGLRHWVVHNNEEESRISRTWLYNLDKNLSGGSGSGSSGGSGTMAASDEVNLIESRTVVPLNTWVLISNFKVAYNILRRPDGTFNRHLAEYLDRKVTANANPVDGVFSFDVLIDRRINLLSRVYRPAYADQEQPPSILDLEKPVDGDIVPVILFFHGGSFAHSSANSAIYDTLCRRLVGLCKCVVVSVNYRRAPENPYPCAYDDGWIALNWVNSRSWLKSKKDSKVHIFLAGDSSGGNIAHNVALRAGESGIDVLGNILLNPMFGGNERTESEKSLDGKYFVTVRDRDWYWKAFLPEGEDREHPACNPFSPRGKSLEGVSFPKSLVVVAGLDLIRDWQLAYAEGLKKAGQEVKLMHLEKATVGFYLLPNNNHFHNVMDEISAFVNAECPKKKRKV
